Reference: patent publication US20220031841A1 (ABSCI, published 2022)

Tests used:
[1] = biological target: T1, Chromobox protein homolog 1 (CBX1) (human, UniProt P83916 1-185); test: HuProt protein array, F635 z-score
T1 construct: The array carries full-length recombinant human proteins expressed in S. cerevisiae; also called Human Chromobox protein homolog 1
Outline: (§1)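 Antibodies probed at 1 μg/ml on native arrays of yeast-expressed full-length human proteins printed in duplicate, 1 h at room temperature. Detected with Alexa-647 anti-human IgG Fc secondary; value is mean z-score of duplicate spots.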

[2] = biological target: T2, Cancer/testis antigen 1 (CTAG1A) (human, UniProt P78358 1-180); test: HuProt protein array, F635 z-score
T2 construct: The array carries full-length recombinant human proteins expressed in S. cerevisiae; also called NY-ESO-1; Cancer/Testis Antigen 1A
T2 sequence (P78358 whole entry): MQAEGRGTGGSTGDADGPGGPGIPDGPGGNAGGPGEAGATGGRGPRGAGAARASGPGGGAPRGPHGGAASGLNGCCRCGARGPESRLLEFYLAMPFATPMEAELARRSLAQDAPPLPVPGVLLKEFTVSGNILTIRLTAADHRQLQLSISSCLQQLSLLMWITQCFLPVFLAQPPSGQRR
Outline: as §1

[3] = biological target: T3, O-linked N-acetylglucosamine (GlcNAc) transferase (OGT) (human, UniProt O15294 2-1046); test: HuProt protein array, F635 z-score
T3 construct: The array carries full-length recombinant human proteins expressed in S. cerevisiae; also called Human OGT
T3 sequence: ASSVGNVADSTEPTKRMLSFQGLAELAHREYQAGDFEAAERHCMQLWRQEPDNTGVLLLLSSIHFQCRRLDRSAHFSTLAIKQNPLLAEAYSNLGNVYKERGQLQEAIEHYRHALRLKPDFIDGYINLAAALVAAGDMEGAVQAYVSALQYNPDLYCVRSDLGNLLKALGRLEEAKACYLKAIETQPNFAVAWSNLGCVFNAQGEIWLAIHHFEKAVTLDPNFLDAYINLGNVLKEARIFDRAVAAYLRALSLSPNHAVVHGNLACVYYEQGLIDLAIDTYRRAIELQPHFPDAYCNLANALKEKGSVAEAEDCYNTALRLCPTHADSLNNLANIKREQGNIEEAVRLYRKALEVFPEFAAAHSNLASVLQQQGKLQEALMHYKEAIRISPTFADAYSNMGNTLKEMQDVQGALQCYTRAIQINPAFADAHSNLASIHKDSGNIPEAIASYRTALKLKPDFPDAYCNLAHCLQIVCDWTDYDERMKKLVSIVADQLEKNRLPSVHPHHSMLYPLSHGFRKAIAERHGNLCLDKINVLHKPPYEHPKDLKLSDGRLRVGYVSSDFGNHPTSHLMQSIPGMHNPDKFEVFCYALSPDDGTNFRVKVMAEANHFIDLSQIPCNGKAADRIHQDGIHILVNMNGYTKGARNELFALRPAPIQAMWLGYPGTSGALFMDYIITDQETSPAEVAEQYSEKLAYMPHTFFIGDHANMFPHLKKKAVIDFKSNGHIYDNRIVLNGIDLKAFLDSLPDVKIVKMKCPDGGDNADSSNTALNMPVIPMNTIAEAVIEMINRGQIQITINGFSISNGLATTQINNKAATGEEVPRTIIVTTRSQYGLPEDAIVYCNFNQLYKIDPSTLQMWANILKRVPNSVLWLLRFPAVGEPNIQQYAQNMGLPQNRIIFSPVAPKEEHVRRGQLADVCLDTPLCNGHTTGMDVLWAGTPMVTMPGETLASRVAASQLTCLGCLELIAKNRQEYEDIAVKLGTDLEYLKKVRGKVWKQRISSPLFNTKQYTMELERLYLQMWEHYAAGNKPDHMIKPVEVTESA
Outline: as §1

[4] = biological target: T4, Alpha-taxilin (TXLNA) also known as interleukin-14A (human, UniProt P40222 1-546); test: HuProt protein array, antibody at 1 µg/ml, Alexa-647 anti-human IgG Fc; F635 signal as z-score; TXLNA replicate 1
T4 construct: The array carries full-length recombinant human proteins expressed in S. cerevisiae; also called IL-14A; TXLNA/IL-14A
T4 sequence (P40222 whole entry): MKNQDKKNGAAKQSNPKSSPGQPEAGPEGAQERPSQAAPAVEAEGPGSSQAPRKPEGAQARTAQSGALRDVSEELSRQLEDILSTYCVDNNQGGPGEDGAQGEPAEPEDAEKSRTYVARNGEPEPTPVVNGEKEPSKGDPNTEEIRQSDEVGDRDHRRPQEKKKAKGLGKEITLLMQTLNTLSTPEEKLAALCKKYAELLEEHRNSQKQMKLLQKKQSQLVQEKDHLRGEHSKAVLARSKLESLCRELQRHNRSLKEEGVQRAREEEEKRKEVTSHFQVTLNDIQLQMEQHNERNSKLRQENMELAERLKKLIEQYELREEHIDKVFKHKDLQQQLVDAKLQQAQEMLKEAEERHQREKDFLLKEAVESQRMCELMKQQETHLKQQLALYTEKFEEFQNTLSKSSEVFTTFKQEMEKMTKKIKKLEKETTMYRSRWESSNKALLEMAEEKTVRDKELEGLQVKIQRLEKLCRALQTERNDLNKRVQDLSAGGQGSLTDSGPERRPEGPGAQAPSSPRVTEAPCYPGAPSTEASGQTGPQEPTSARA
Excerpt: (§2) Large scale protein arrays are versatile and sensitive platforms for antibody specificity evaluation. They can be used for the evaluation of protein binding or affinity reagents that are widely employed in research and clinical applications. The microarray used in our target identification experiment provides the largest number of unique, full-length, individually purified human proteins on a single microscope slide. This allows thousands of interactions to be profiled in a high-throughput manner. The hill-length recombinant proteins are expressed in the yeast S. cerevisiae, purified, and printed on glass slides in duplicate along with a set of control proteins (GST, BSA, histones, IgG, etc.). Such microarray is not restricted to a particular type of surface coating, although the default is glass coated with ultra-thin nitrocellulose film for the non-covalent, yet irreversible, capture of active proteins to the surface. Fourteen Protein arrays were used for the antibody cross-reactivity assay of the samples. […] The antibody-antigen binding score was calculated for each protein represented on the array and expressed as z-scores. […]
(§3) Z score is the average Z score of the duplicate spots of a given protein (each protein is printed in duplicate on a HuProt™ array). The Z score of each spot on a given array is calculated according to the equation: […]

[5] = biological target: T4, Alpha-taxilin (TXLNA) also known as …; test: HuProt protein array, F635 z-score
Outline: as §1

[6] = biological target: T5, Inorganic pyrophosphatase (PPA1) (human, UniProt Q15181 2-289); test: HuProt protein array, antibody at 1 µg/ml, Alexa-647 anti-human IgG Fc; F635 signal as z-score; PPA1 replicate 1
T5 construct: The array carries full-length recombinant human proteins expressed in S. cerevisiae; also called Human PPA1
T5 sequence: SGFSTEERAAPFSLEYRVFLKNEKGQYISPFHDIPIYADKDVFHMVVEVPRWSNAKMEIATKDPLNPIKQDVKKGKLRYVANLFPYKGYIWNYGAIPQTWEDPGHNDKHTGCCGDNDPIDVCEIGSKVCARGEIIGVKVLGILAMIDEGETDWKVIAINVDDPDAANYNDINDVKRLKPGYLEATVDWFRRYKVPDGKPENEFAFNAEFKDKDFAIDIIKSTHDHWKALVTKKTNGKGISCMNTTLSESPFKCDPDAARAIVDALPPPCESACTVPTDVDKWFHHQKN
Excerpt: as §2, §3

[7] = biological target: T6, Kinesin light chain 4 protein (KLC4) (human, UniProt Q9NSK0 2-619); test: HuProt protein array, antibody at 1 µg/ml, Alexa-647 anti-human IgG Fc; F635 signal as z-score; KLC4 replicate 1
T6 construct: The array carries full-length recombinant human proteins expressed in S. cerevisiae; also called Human KLC4
T6 sequence (Q9NSK0 2-619 limits assumed): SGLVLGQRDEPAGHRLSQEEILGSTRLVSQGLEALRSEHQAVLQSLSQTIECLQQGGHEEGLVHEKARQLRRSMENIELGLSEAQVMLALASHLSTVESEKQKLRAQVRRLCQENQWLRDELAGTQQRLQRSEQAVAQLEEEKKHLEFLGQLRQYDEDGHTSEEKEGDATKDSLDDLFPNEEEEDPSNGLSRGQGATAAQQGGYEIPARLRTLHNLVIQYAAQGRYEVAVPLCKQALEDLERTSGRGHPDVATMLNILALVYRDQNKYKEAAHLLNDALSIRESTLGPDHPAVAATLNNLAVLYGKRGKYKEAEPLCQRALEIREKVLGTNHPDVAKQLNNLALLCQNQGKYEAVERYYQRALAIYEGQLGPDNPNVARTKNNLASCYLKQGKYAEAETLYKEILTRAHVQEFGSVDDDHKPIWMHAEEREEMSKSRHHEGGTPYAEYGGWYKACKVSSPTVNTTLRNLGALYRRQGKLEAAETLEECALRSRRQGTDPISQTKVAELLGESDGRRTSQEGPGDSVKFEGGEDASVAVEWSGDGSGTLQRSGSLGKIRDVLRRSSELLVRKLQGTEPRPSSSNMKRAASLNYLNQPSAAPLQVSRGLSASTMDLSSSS
Excerpt: as §2, §3

T1 sequence (P83916 whole entry): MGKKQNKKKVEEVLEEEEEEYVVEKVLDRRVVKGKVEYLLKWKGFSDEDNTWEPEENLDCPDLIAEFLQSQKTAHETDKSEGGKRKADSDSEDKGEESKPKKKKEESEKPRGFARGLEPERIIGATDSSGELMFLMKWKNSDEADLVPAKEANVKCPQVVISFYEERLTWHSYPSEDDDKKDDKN

| Binder | binding result [1] | binding result [2] | binding result [3] | binding result [4] | binding result [5] | binding result [6] | binding result [7] |
| --- | --- | --- | --- | --- | --- | --- | --- |
| TMEL1011 (antibody, V domains shown, It was detected with an anti-human IgG Fc gamma secondary antibody) VH: PVQLVQSGAEVKKPGSSVKVSCKASGGTFSSYSFNWVRQAPGQGLEWMARIIPILGLANYAQKFQGRVTLTADESTSTAYMELSSLRSEDTAIFYCAGMVLGQLGFDPWGQGTLVTVSS VL: QFMLTQPHSVSESPGRTVTISCTRSSGSIARNYVHWYQHRPGSSPTTVIYEDDQRPSGVPDRFSGSIDSSSNSASLTISGLKPEDEADYFCQSYDSNIWVFGGGTKLTVLG | no binding (tested: 1 µg/ml) | no binding (tested: 1 µg/ml) | no binding (tested: 1 µg/ml) | binds | – | – | – |
| TMEL1010 (antibody, V domains shown, It was detected with an anti-human IgG Fc gamma secondary antibody) VH: QVQLVQSGAEVKKPGASVKVSCKASGYTFSSYGISWVRQAPGQGLEWMGWISAYNGNTNYAKKLQGRVTMTTDTSTSTAYLELRSLRSDDTAVYYCARGDGPFDYWGQGTLVTVSS VL: EIVMTQSPATLSVSPGERATLSCWASQSVSSSLAWYQQKPGQAPRLLMYGASNRATGIPARFSGSGSGTEFTLTISSLQSEDFAVYYCQQYNKWPPDTFGQGTKLEIKR | no binding (tested: 1 µg/ml) | no binding (tested: 1 µg/ml) | no binding (tested: 1 µg/ml) | – | no binding (tested: 1 µg/ml) | binds | – |
| TMEL1007 (antibody, V domains shown, It was detected with an anti-human IgG Fc gamma secondary antibody) VH: HVHLVQSGAEVKKPGSSVKVSCTASGGSFSSNPISWVRQAPGHGLQWMGGFVPLFGTANYAPSFHGRLTITADESTSTTYMELNSLRSEDSAVYYCARDFNWNFDFWGQGTLVTVSS VL: QSALTQPASVSGSPGQSITISCTGTSSDIGSYNLVSWYRQYPGKAPKLMIYEVNKRPSGVSNRFSGSKSGNTASLTISGLQAEDEADYYCCSYAGTTTFVIFGRGTKLTVLG | no binding (tested: 1 µg/ml) | no binding (tested: 1 µg/ml) | no binding (tested: 1 µg/ml) | – | no binding (tested: 1 µg/ml) | – | binds |
